# Reference: the supplement of paper PMC10724198
# ± gives the standard deviation of the averaged measurements.
# Tests used:
# Saccharomyces cerevisiae [1] = assay: protein stability index of tFT-peptide fusion (C-terminal peptide) (PSI (0-1 scale)); higher = more stable (slower turnover); settings: genetic background: wild type; temperature: 30 C
# Saccharomyces cerevisiae [2] = assay: as above
# Method: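 MPS profiling in S. cerevisiae of the tFT-X12 degron library: putative degron peptides plus stable controls, 12 aa, fused to the C-terminus of a sfGFP-mCherry timer. Cells are FACS-sorted into 8 mCherry/sfGFP bins and deep-sequenced. PSI runs from 0 (unstable) to 1 (stable). Backgrounds are wild type, das1Δ and doa10Δ at 30 °C, and wild type, das1Δ, cdc34-1 and cdc53-1 at 37 °C; 2-3 technical replicates each.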
# [3] = genetic background: cdc34-1, temperature: 37 C
# [4] = genetic background: cdc53-1, temperature: 37 C
# [5] = genetic background: das1 deletion, temperature: 30 C
# [6] = genetic background: das1 deletion, temperature: 37 C
# [7] = genetic background: doa10 deletion, temperature: 30 C
# [8] = genetic background: wild type, temperature: 30 C
# [9] = genetic background: wild type, temperature: 37 C
# 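Further: PSI is a weighted mean of sequencing reads over stability bins, variants kept only with over 10 reads, mCherry proximal and sfGFP distal, peptide attached via GGGS linker.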
Sequence,protein stability index (Saccharomyces cerevisiae [1]),protein stability index (Saccharomyces cerevisiae [2]; [3]),protein stability index (Saccharomyces cerevisiae [2]; [4]),protein stability index (Saccharomyces cerevisiae [2]; [5]),protein stability index (Saccharomyces cerevisiae [2]; [6]),protein stability index (Saccharomyces cerevisiae [2]; [7]),protein stability index (Saccharomyces cerevisiae [2]; [8]),protein stability index (Saccharomyces cerevisiae [2]; [9])
NENQIKVIMLLV,0.266 ± 0.011,0.4964 ± 0.0021,0.572 ± 0.092,0.344 ± 0.052,0.555 ± 0.0077,0.153 ± 0.0095,0.196 ± 0.04,0.268 ± 0.011
NRFRLFRLNFSV,0.302 ± 0.015,0.68 ± 0.042,0.724 ± 0.052,0.606 ± 0.02,0.751 ± 0.014,0.161 ± 0.0037,0.168 ± 0.024,0.36 ± 0.049
PATPPLRFPPSA,0.409 ± 0.0081,0.702 ± 0.032,0.7349 ± 0.0039,0.648 ± 0.01,0.7356 ± 0.0028,0.67 ± 0.033,0.668 ± 0.012,0.7075 ± 0.0036
PCTFYLFWMFFV,0.3041 ± 0.002,0.4168 ± 0.0038,0.565 ± 0.042,0.43 ± 0.018,0.6011 ± 0.0014,0.223 ± 0.011,0.228 ± 0.021,0.328 ± 0.0081
PFGPTFSPRPFR,0.773 ± 0.022,0.727 ± 0.048,0.767 ± 0.011,0.684 ± 0.015,0.7793 ± 0.0072,0.692 ± 0.023,0.701 ± 0.013,0.747 ± 0.0083
PFLSLPFLFPSS,0.531 ± 0.14,0.715 ± 0.026,0.769 ± 0.012,0.684 ± 0.0075,0.7675 ± 0.0052,0.687 ± 0.027,0.696 ± 0.027,0.757 ± 0.016
PFSLCFVFPFFF,0.187 ± 0.0097,0.52 ± 0.021,0.5891 ± 0.0011,0.567 ± 0.035,0.6329 ± 0.0063,0.143 ± 0.0063,0.174 ± 0.0044,0.28 ± 0.0092
PGWALLQLVFLK,0.456 ± 0.012,0.363 ± 0.004,0.298 ± 0.039,0.346 ± 0.032,0.4845 ± 0.0029,0.496 ± 0.035,0.353 ± 0.021,0.464 ± 0.011
PHHSPPTGPPND,0.687 ± 0.022,0.673 ± 0.011,0.737 ± 0.018,0.648 ± 0.008,0.7171 ± 0.0041,0.663 ± 0.014,0.658 ± 0.007,0.705 ± 0.0085
PLHPSSTPATPF,0.732 ± 0.034,0.69 ± 0.03,0.741 ± 0.0032,0.667 ± 0.023,0.745 ± 0.023,0.677 ± 0.026,0.6834 ± 0.0044,0.722 ± 0.02
PLLPPLSTPPPA,0.385 ± 0.062,0.69 ± 0.0086,0.732 ± 0.023,0.663 ± 0.015,0.739 ± 0.011,0.669 ± 0.022,0.677 ± 0.013,0.6983 ± 0.0039
PLPSRAPVQFLL,0.319 ± 0.021,0.624 ± 0.012,0.754 ± 0.017,0.643 ± 0.029,0.727 ± 0.0097,0.1719 ± 0.0011,0.199 ± 0.019,0.3725 ± 0.00074
PLRLRCASLFAN,0.498 ± 0.086,0.62 ± 0.021,0.692 ± 0.0095,0.618 ± 0.034,0.737 ± 0.04,0.304 ± 0.018,0.362 ± 0.019,0.5647 ± 0.002
PLVLPPINLFLV,0.189 ± 0.0031,0.575 ± 0.071,0.729 ± 0.025,0.63 ± 0.017,0.7373 ± 0.0008,0.0842 ± 0.029,0.114 ± 0.019,0.136 ± 0.021
PPLPPPPPHPPP,0.488 ± 0.016,0.458 ± 0.045,0.52 ± 0.019,0.477 ± 0.0095,0.521 ± 0.023,0.501 ± 0.017,0.493 ± 0.04,0.4959 ± 0.0011
PPPLLVRPWFLV,0.214 ± 0.05,0.618 ± 0.054,0.725 ± 0.013,0.612 ± 0.029,0.741 ± 0.024,0.147 ± 0.018,0.157 ± 0.019,0.269 ± 0.02
PPPPHSAPLFLS,0.37 ± 0.0087,0.604 ± 0.007,0.697 ± 0.011,0.651 ± 0.019,0.694 ± 0.011,0.227 ± 0.0096,0.261 ± 0.032,0.458 ± 0.011
PPPPLFLIVLHL,0.434 ± 0.033,0.5196 ± 0.0015,0.621 ± 0.031,0.465 ± 0.03,0.642 ± 0.012,0.4109 ± 0.0026,0.401 ± 0.026,0.593 ± 0.023
PPPPPLAIPHPT,0.7255 ± 0.0042,0.655 ± 0.037,0.709 ± 0.013,0.661 ± 0.04,0.684 ± 0.024,0.639 ± 0.011,0.674 ± 0.031,0.7141 ± 0.0041
PPPPPPLPSPSS,0.35 ± 0.0078,0.664 ± 0.038,0.742 ± 0.024,0.64 ± 0.021,0.754 ± 0.012,0.659 ± 0.015,0.68 ± 0.023,0.699 ± 0.019

Sequence,protein stability index (Saccharomyces cerevisiae [1]),protein stability index (Saccharomyces cerevisiae [2]; [3]),protein stability index (Saccharomyces cerevisiae [2]; [4]),protein stability index (Saccharomyces cerevisiae [2]; [5]),protein stability index (Saccharomyces cerevisiae [2]; [6]),protein stability index (Saccharomyces cerevisiae [2]; [7]),protein stability index (Saccharomyces cerevisiae [2]; [8]),protein stability index (Saccharomyces cerevisiae [2]; [9])
PPPPPSRPFSPP,0.502 ± 0.015,0.698 ± 0.042,0.7412 ± 0.0017,0.687 ± 0.0079,0.71 ± 0.024,0.689 ± 0.0074,0.6544 ± 0.0037,0.709 ± 0.013
PPPRSLSPPLLS,0.409 ± 0.0037,0.642 ± 0.0076,0.7372 ± 0.0019,0.643 ± 0.025,0.704 ± 0.0013,0.6711 ± 0.0062,0.659 ± 0.014,0.681 ± 0.023
PPRSRPLLRPLP,0.746 ± 0.021,0.699 ± 0.0037,0.726 ± 0.012,0.666 ± 0.022,0.7139 ± 0.0036,0.684 ± 0.033,0.684 ± 0.022,0.708 ± 0.025
PPSRVSIRLLIR,0.4017 ± 0.0039,0.446 ± 0.025,0.473 ± 0.0095,0.362 ± 0.021,0.461 ± 0.0062,0.374 ± 0.0089,0.371 ± 0.0086,0.448 ± 0.013
PRFLRWLFSLLI,0.515 ± 0.032,0.739 ± 0.039,0.704 ± 0.012,0.705 ± 0.015,0.769 ± 0.044,0.597 ± 0.0095,0.592 ± 0.014,0.739 ± 0.041
PRINTFVVVRVC,0.159 ± 0.042,0.102 ± 0.02,0.183 ± 0.015,0.216 ± 0.038,0.336 ± 0.013,0.0626 ± 0.015,0.0722 ± 0.018,0.0609 ± 0.0015
PSCLLVAPRFSS,0.755 ± 0.017,0.672 ± 0.036,0.745 ± 0.015,0.67 ± 0.022,0.712 ± 0.027,0.677 ± 0.014,0.694 ± 0.019,0.715 ± 0.0045
PSFSLLRSLTLI,0.284 ± 0.0073,0.6084 ± 0.0024,0.7024 ± 0.0056,0.6712 ± 0.0021,0.699 ± 0.022,0.192 ± 0.02,0.205 ± 0.022,0.413 ± 0.027
PTYTKYRTRQIN,0.0994 ± 0.044,0.528 ± 0.066,0.745 ± 0.025,0.62 ± 0.011,0.7536 ± 0.0066,0.0947 ± 0.015,0.133 ± 0.04,0.156 ± 0.024
PVILISWQLRCY,0.0229 ± 0.026,0.018 ± 0.0019,0.0284 ± 0.0013,0.0318 ± 0.01,0.049 ± 0.011,0.0188 ± 0.0012,0.0174 ± 0.0032,0.0417 ± 0.0029
PVPPRVNLLRVS,0.3959 ± 0.0035,0.619 ± 0.034,0.6641 ± 0.0053,0.542 ± 0.028,0.6735 ± 0.0053,0.215 ± 0.0024,0.263 ± 0.031,0.475 ± 0.011
PVWLSFHFFLCA,0.44 ± 0.061,0.426 ± 0.041,0.48 ± 0.011,0.369 ± 0.019,0.509 ± 0.013,0.321 ± 0.02,0.332 ± 0.017,0.469 ± 0.0063
QIDYSVYIFALG,0.371 ± 0.026,0.4309 ± 0.00032,0.493 ± 0.036,0.279 ± 0.03,0.4672 ± 0.0007,0.261 ± 0.0014,0.302 ± 0.023,0.454 ± 0.0065
QRFASFFFLHLS,0.227 ± 0.0046,0.411 ± 0.069,0.504 ± 0.061,0.585 ± 0.012,0.6374 ± 0.0022,0.157 ± 0.028,0.142 ± 0.036,0.251 ± 0.011
QRTNTIINKRIV,0.565 ± 0.096,0.704 ± 0.036,0.753 ± 0.016,0.623 ± 0.028,0.736 ± 0.012,0.478 ± 0.03,0.477 ± 0.028,0.705 ± 0.041
RALSLPPLLLVL,0.423 ± 0.023,0.386 ± 0.013,0.443 ± 0.038,0.319 ± 0.013,0.48 ± 0.011,0.338 ± 0.029,0.326 ± 0.029,0.4351 ± 0.0017
RCIFYHSPVLCL,0.449 ± 0.02,0.469 ± 0.022,0.515 ± 0.022,0.399 ± 0.023,0.51 ± 0.0089,0.365 ± 0.0064,0.398 ± 0.018,0.511 ± 0.041
RCQILSYCLLFV,0.407 ± 0.012,0.4186 ± 0.0033,0.42 ± 0.017,0.34 ± 0.025,0.477 ± 0.016,0.381 ± 0.025,0.33 ± 0.024,0.4523 ± 0.0013
RCSLRLRFIFVR,0.166 ± 0.0029,0.0761 ± 0.024,0.0507 ± 0.018,0.128 ± 0.019,0.159 ± 0.0038,0.254 ± 0.024,0.104 ± 0.022,0.116 ± 0.0027
